Measured values published in IntAct's records for PubMed 20723757.

B1: Monopolin complex subunit CSM1 (Saccharomyces cerevisiae), P25651 (parent)
chain: MDPLTVYKNSVKQQIDSADLLVANLVNENFVLSEKLDTKATEIKQLQKQIDSLNAQVKELKTQTSQQAENSEVIKDLYEYLCNVRVHKSYEDDSGLWFDISQGTHSGGSSDDYSIMDYKLGFVKGQAQVTEVIYAPVLKQRSTEELYSLQSKLPEYLFETLSFPLSSLNQFYNKIAKSLNKKREKKDETE
partner: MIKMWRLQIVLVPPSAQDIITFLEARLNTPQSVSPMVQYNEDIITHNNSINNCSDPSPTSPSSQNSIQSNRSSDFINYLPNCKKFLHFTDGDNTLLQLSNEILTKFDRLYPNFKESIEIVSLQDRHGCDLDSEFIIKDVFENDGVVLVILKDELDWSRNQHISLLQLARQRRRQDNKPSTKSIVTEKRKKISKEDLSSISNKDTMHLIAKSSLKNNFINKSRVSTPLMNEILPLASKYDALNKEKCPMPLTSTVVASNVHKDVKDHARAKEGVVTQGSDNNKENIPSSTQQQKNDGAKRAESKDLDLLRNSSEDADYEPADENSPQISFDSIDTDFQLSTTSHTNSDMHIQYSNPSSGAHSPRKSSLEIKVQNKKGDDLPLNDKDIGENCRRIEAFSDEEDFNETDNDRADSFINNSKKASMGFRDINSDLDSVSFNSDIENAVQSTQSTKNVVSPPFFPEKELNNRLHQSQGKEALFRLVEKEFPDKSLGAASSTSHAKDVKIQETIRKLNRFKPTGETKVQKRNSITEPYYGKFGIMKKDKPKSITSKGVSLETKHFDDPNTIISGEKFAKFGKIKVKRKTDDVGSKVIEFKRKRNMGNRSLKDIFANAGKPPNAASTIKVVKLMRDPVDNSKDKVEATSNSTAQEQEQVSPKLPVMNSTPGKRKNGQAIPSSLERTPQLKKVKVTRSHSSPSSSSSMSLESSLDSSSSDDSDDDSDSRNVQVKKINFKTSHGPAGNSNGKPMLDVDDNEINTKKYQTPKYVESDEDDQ
B2: Monopolin complex subunit pcs1 (Schizosaccharomyces pombe (strain ATCC 38366 / 972)), O13684 (parent)
chain: MRKNNMQTSKDSELKEQAKGKSSKLIHKLPKQRTRISQGQMHSTQDFVNNEDQDAYSVRENENELHINNSGMSELNKKLQLPNVELSTLSHTQEQEFNELNKLIRKINELQEFYLLEDLAKPVTNAGADADDTIVKDLKKELENEKKANHSLKNELLKTREQIKNYSKINILIKELFGLEVADCIEDEDGYRFNCKNTGRRGTLEYQLLLDDQNFTFTPRLNVQTDEELMKHLPDYLLEEIIFTKEQGKLFSARLMKALQD
partner: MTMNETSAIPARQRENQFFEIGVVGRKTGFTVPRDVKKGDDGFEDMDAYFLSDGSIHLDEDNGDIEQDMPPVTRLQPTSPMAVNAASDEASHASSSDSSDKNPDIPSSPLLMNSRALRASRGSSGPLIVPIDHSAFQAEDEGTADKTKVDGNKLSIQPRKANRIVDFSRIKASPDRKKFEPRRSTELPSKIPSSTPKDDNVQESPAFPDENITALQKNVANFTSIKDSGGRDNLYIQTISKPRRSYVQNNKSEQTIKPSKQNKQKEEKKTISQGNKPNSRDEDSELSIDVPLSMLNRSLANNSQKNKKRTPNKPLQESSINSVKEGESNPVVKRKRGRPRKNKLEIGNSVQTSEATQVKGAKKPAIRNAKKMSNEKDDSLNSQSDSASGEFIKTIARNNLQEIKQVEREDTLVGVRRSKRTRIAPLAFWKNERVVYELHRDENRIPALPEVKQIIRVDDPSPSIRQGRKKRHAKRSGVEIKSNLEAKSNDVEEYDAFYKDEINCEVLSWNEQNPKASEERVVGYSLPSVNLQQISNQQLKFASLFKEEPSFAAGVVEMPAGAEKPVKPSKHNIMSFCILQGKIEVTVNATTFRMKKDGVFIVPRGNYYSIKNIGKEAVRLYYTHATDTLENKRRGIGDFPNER

Variants of: B1
Details: with tof2_yeast TOF2, Q02208

| Variant | effect of a mutation on the interaction |
| --- | --- |
| L161D | decreasing interaction |
| Y156A | decreasing interaction |
| Y156E | decreasing interaction |

The remaining lines, values ahead:

| effect of a mutation on the interaction | Variant |
| --- | --- |
| decreasing interaction | L161K |
| decreasing interaction | K174E |

Variants of: B2
Details: with cenpc_schpo cnp3, Q9USR9

| effect of a mutation on the interaction | Variant |
| --- | --- |
| decreasing interaction | Y236A |
| decreasing interaction | I241A |
